# Source: the DeepSol protein solubility set
# Test: soluble on expression in E. coli; label from the status in PepcDB or PDB records
row,Sequence,soluble on expression in E. coli
1,FHLTTRNGEPHMIVSRQEKGKSLLFKTEDGVNMCTLMAMDLGELCEDTITYKCPLLRQNEPEDIDCWCNSTSTWVTYGTCT,soluble
2,MGLQELDPLAQLSLPPGFRFYPTDEELMVEYLCRKAAGHDFSLQLIAEIDLYKFDPWVLPSKALFGEKEWYFFSPRDRKYPNGSRPNRVAGSGYWKATGTDKVISTEGRRVGIKKALVFYIGKAPKGTKTNWIMHEYRLIEPSRRNGSTKLDDWVLCRIYKKQTSAQKQAYNNLMTSGREYSNNGSSTSSSSHQYDDVLESLHEIDNRSLGFAAGSSNALPHSHRPVLTNHKTGFQGLAREPSFDWANLIGQNSVPELGLSHNVPSIRYGDGGTQQQTEGIPRFNNNSDVSANQGFSVDPVNGFGYSGQQSSGFGFI,soluble
3,MSFTQLMRVSMKIAFIGEAVSGFGGMETVIRDVITTFRQQHIQSEMFFFCRNDKMDKGWLEGIKYSCSFSNIRLGFLRRAKHIHALSKWLQEYQPDIVICIDVISCLFAAKARKKSGIDMPVFSWPHFSLDHKKHAEYITCADYHLAISSGIKQQMINRGVAESTINVIFNPVETKDSVIPAPEEGETATFIYVGRMKFEGQKRVKDLLDGLSQAKGNWKLHVLGDGSDFEKCQAYGRELNIDDRIVWYGWQQYPWELVQQDIEKVSALLLTSSFEGFPMTLLEALSWGIPCISADCVSGPADIIQPDVNGHLYQPGDIAGFVTLLNKYIAGEIHIEHEKIPASIDEFYQSKYYDRLHKVIISAISRRK,not soluble
4,MLSRRGKMKRIKVLRNGPYLVEGSVPLYEEVIVTDEEGHTREFVERRQFPLKERYVLCRCGESGNKPYCDGTHIRTGFDGTETASLEPYIERARVFRAGDLELTDVPELCDHSRFCLRAGGIRELLRKGDRESIQIAIEEAMICPSGRLVLWDRKTGKPYERDYEKSIVVIHDKQKRCEGPLWVRGGIPIESADGREYEVRNRVTLCRCGLSENKPFCDGSHWMTAEEKLEFKRKWGIELEHHHHHH,not soluble
5,MGSDKIHHHHHHVEFIVGGATGEFYFLEMNTRLQVEHPVTEMITGLDLVEQMIRVAYGEKLKITQDDVKLQGWSMEARVYAEDPFRNFLPSTGRLTRYQPPAESQHVRVDTGVYEGGEISMFYDPMIAKLITYGPTRETAIAHMRQALDEYHIRGLSHNIPFLASLFSKERFVKGNLTTNFIAEEYPNGFTSSDLPSDDPTTLIAVAAAMKRRIVERNIQISGQFPGHEMKAPTEWTVLIGGTYHEVDVHPAPGGYAVVVEGEAVEVKTDWQIGDPLIRAKVDDRMVCVQVDRTGVSFRLSHSGVQAEVWVLTRPTAKLHKLMPFKAPPDMSKYLLSPMPGLLAKLLVEEGQEVKAGEPLAVVEAMKMENILKAERDAKIAKVHAKSGDSLAVDQKIIEFAS,not soluble
6,MGSDKIHHHHHHMQIKEFLISRRSEVVNNFYDNYYTQTDEYKLRLSAGEDEQSIRSLSTASCGMIIDVITGVKERDFENIGKRRFNDKTDIRKIHQHMSEIDKFIINSLLKWKETEDVFYTDADIIQFMLEIKDTLASIQQQLLEGFMQENRNQVMAQRKEIIQLSTRIIPITDSIGVLPIVGSLDDDRGYFMKEKAIESADKLNLDFIVIDFSSAVLKDDFATKHMEDMIQSFKLIGLIPILSGMQPSFAQRTIQVGSNISKLQSFGSLEQALTNLGL,not soluble
7,MSGLHILAFGAHADDVEIGMAGTIAKYTKQGYEVGICDLTEADLSSNGTIELRKEEAKVAARIMGVKTRLNLAMPDRGLYMKEEYIREIVKVIRTYKPKLVFAPYYEDRHPDHANCAKLVEEAIFSAGIRKYMPELSPHRVESFYNYMINGFHKPNFCIDISEYLSIKVEALEAYESQFSTGSDGVKTPLTEGYVETVIAREKMFGKEVGVLYAEGFMSKKPVLLHADLLGGCK,not soluble
8,MNRPHSATGDRPLALVDEHAHAWSPKTARARFRKGLTGPTAGVAAGHTQANLISVPADWAYDMLLFCTRNPQPCPVLDVTDAGSWTTVLADGADLRTDLPRYRVWRDGELVDEPSDVREHWRDDLVTFLIGCSFTFEWALAAAGVPIRHVEQGRNVPMYVTSRACRPAGRLRGPMVVSMRPVPPAHLSAAIHESSLLPAVHGSPVHCGDPSALGIDDLDRPDFGEAVYREPDDIPVFWACGVTPQAAVMASRPPFALTHAPGQMFLTDARDEQYRVALEHHHHHH,soluble
9,MGSDKIHHHHHHMWGFPRAGSSPALGTSRKRRSFLRFFLEENGVKEIELFGTKVLSGTRREFLNAIEERIEKNIKTFVVTMNASILLKAIEDAGYRAIVNSADLVVPDGFGVVWAMKTLTGETTERLPGVEIMKHLCERSKEKGWKVYLLGTKREIVEKAKQVLERSGVRVVGCHDGFFSEKESPKIVEDVNRSSTDLLFVGMGVPRQEEWIYRNFPQLNVKLAMGVGGSIDVVSGKKKRAPEWVQRMNLEWLYRFFQSPLSKRKVPVQVSKFVFFVLREKLKNRN,not soluble
10,MVVVTGREPDSRRQDGAMSSSDAEDDFLEPATPTATQAGHALPLLPQEFPEVVPLNIGGAHFTTRLSTLRCYEDTMLAAMFSGRHYIPTDSEGRYFIDRDGTHFGDVLNFLRSGDLPPRERVRAVYKEAQYYAIGPLLEQLENMQPLKGEKVRQAFLGLMPYYKDHLERIVEIARLRAVQRKARFAKLKVCVFKEEMPITPYECPLLNSLRFERSESDGQLFEHHCEVDVSFGPWEAVADVYDLLHCLVTDLSAQGLTVDHQCIGVCDKHLVNHYYCKRPIYEFKITW,soluble
11,MGKVTGFLEIERHDRVYAPVTDRVKNYNEFVVPLSEKDLRDQAARCMNCGIPYCHGTGSAQPGATGCPVNNQIPDWNDLVYNGYWQEAARTLHSTNNFPEFTGRICPAPCEASCTLNIDDNPVTIKTIECAIVDTAFDNGWVTPEIAAVKTGQSVAVVGAGPAGLACAQQLARAGHDVHVYEKFAKAGGLLRYGIPDFKMEKTLIDRRVAQMEAEGVTFHYGAPVGGSAPGAVDPAELLKQYDAVALTGGAEAPRDLPIPGRELGGIHFAMDFLTQQNRRVSGEAVNGTDILAAGKNVVVIGGGDTGSDCIGTSIRQGAKSVTQIEIMPAPPERENKALTWPNWPMKMRTSSSQAEGAAREFAVMTQSFEGEGGVVKKLNCVRVDAKFQPIPGTEFTLEADLVLLAMGFVSPVKEGLLTQLGVALDPRGNVAADLSHFTTSVDKVFAAGDMRRGQSLVVWAIREGRLCAQAIDRFLMGATTLPRLEHHHHHH,not soluble
12,MAIDFHLSASQKGTYQAARSLARNLLMPARQTYLQHPPNSPLRFQSTQPTYAAAVSAGILKGQISPAHGGTGGTLIESAILVEECYSVEPSAALTIFATGLGLTPINLAAGPQHAEFLAPFLSGEGSPLASLVFSEPGGVANALEKGAPGFQTTARLEGDEWVINGEKMWATNCAGWDFKGCDLACVVCRDATTPLEEGQDPENKVMIILVTRADLDRNGEGSFEVLRHVATPGHTSVSGPHVRYTNVRVPTKNVLCPAGQGAKVAFGAFDGSAVLVGAMGVGLMRAAFDAALKFAKEDNRGGAVPLLERQAFADLLSGVKIQTEAARALTWKAAHAMENGPGDYDARRELALAAKVFCSEAAVKACTDVINAVGISAYDLQRPFSDLLNTAVVLPIFDGGNVGIRRRHLQQLMLKPTYDAWSSTYGSFPGSHHHHHH,soluble
13,MLLCAGRNETLKKAVPIGVGLIESAINLTRMCLKNPDTESLIFIGSAGSYSPEMELLSVFESVCGYQIEESFSHLNSYTPLDNFIHIETEEQALFERVRVNSSNYIHTSEMFAKKMVQKGVLLENMEFFSVLSVAKAFSLKAKGIFCVSNYVGLNAYQEFKENHAKVKQILENIIDSLII,soluble
14,MSLKVSVIIPTYNERENLEELFSRIDNALQGLNYEIVVVDDDSPDRTWEKAQELSSKYPVKVIRRTKEKGLSSAVIRGFKEASGDVFVVMDADLQHPPEVIPKLIEAIKNGSDIAIGSRYVKGGKVENWPFYRKLISKGAIMVGRIALPKIRDIKDPVSGFFALRKEVVEGVELNPIGFKILMEILIKGKYSKVVEVPFTFGIRARGESKLKGKTIFEYLRHIYRLMKWEGEIDREGHHHHHH,soluble
15,GVGRLDDLKRSPLFQNVPEDAMREALKVVTERNFQPDELVVEQDAEGEALHLVTTGVVRVSRVSLGGRERVLGDIYAPGVVGETAVLAHQERSASVRALTPVRTLMLHREHFELILRRHPRVLWNLAEMLARRVTFLNDELIAFGQNTEAALTHVFANLYRQRLAAGVPQPEVLPLGTQDIMARTSSSRETVSRVLKRLEAHNILEVSPRSVTLLDLAALEALSFEGAETD,soluble
16,MKRAFIMVLDSFGIGATEDAERFGDVGADTLGHIAEACAKGEADNGRKGPLNLPNLTRLGLAKAHEGSTGFIPAGMDGNAEVIGAYAWAHEMSSGKDTPSGHWEIAGVPVLFEWGYFSDHENSFPQELLDKLVERANLPGYLGNCHSSGTVILDQLGEEHMKTGKPIFYTSADSVFQIACHEETFGLDKLYELCEIAREELTNGGYNIGRVIARPFIGDKAGNFQRTGNRHDLAVEPPAPTVLQKLVDEKHGQVVSVGKIADIYANCGITKKVKATGLDALFDATIKEMKEAGDNTIVFTNFVDFDSSWGHRRDVAGYAAGLELFDRRLPELMSLLRDDDILILTADHGCDPTWTGTDHTREHIPVLVYGPKVKPGSLGHRETFADIGQTLAKYFGTSDMEYGKAMF,not soluble
17,MGSDKIHHHHHHMENYTHWFYLESYTFLFYSKNQYVIYNTLNSTYIDCSLYGKTINTVLSILHNTNKTYCVGIYEYQLRDSQFTEFIKKIRNTFSGDIIKNIRGIPPFISKPILRILHHPNNPKTKEYNLLGENALFHLHEVTFYLENQGFDLNPMYKDCYKQFLYPTYTEKQKLSHAKYLEIIEQLSICQIDKINIIPATIEKKELFSYLLSLSRQYSIKTQIILPYKKYNKEDLKQLLTNPQFSIMIMVHLPVDYEELNSYINLFNEYNITWSLIASNKNDVIFLSKNNLGKFTNVDYIPWYTGDNMDFFKEYIYNDFKDIIEQKNTKQHIFRKQILNDNLFGKLTIFPTGEVYSNVNFPTIGNIQDQKLSEIVYSEIENYFKPWFFTRDYVSCKNCVNKYLCPSISNYEIVANEYNMCYLNQ,not soluble
18,MDPLRAQQLAAELEVEMMADMYNRMTSACHRKCVPPHYKEAELSKGESVCLDRCVSKYLDIHERMGKKLTELSMQDEELMKRVQQSSGPA,soluble
19,GPGSMRFRRVLAPLAASPHRWKTQRSPRGEETMGEGGAIEPDTSEAWVRNYVARAVREGRQTKESAEYFESIMNDQVEFRQYIQEARRLLNNQDPRTLTKYQRGHFAERLSRQMSGVAAERLMRAHAEESNARRHTQDGTPTGENYWFEAGNTLASPSVPGFVKDEVMREMREDRKKTSAAFEESEELQAMADKDEAFAEHLRRQRQHLFRSNDDVN,not soluble
20,MAHHHHHHMRRALHAAALPSRAPLTPQRYKSYVLKFLRGQLPHDLKDCAGALGCLYGTLPDVDEYRQFVVPLQVLQQYHQLGYAKLPRPVLDPPQVDILADEVNQLANNVEHHPKSEHLYATSLADLTGGPLFYCQGQWRCAWGMHDLVYLPTLTVAASQALGNRLVRLWYDEAFMKEARTGPCVPWQQNYVRWQHTTPVNHVSIMIALDTLNKDRGAPCLIPGSHRWREGQLLPPVPYDPTQSETQQLNTIWDITNDDEQEMLADTPPATVDLRRGEALLIHPKTLFATHGNRSLDAARCCCVHYMGEATCAVQDGPLLPHTTRFRAGTRVSGPFFPVVFDPAMTEDLLMLDNKEGGAAA,not soluble
